Legend:
endogenous 14-3-3ε = endogenous 14-3-3ε (UniProt P62258)
[1] = target: T1, GST-NS3 of HCV (strain Con1) (Hepatitis C virus, strain Con1, UniProt Q9WMX2 1027-1657); test: GST pull-down in 293T cells, immunoblot with anti-14-3-3ε
T1 construct: domain: NS3; also called HCV NS3; NS3 of Hepatitis C virus

[2] = target: T2, FLAG-NS5-MTase (NS5 methyltransferase domain, aa 1-319) (dengue virus serotype 2, strain NGC, UniProt P14340 2492-2810); test: FLAG affinity purification from HEK293T cells and mass spectrometry
T2 construct: domain: NS5 methyltransferase (aa 1-319); also called pEF-BOS-FLAG-NS5-MTase; not shown: FLAG tag

endogenous RIG-I = target: T3, endogenous RIG-I (human, UniProt O95786 1-925); test: Co-IP with anti-RIG-I from SeV-infected cells, immunoblot with anti-14-3-3ε
T3 construct: also called retinoic acid-inducible gene-I
T3 sequence: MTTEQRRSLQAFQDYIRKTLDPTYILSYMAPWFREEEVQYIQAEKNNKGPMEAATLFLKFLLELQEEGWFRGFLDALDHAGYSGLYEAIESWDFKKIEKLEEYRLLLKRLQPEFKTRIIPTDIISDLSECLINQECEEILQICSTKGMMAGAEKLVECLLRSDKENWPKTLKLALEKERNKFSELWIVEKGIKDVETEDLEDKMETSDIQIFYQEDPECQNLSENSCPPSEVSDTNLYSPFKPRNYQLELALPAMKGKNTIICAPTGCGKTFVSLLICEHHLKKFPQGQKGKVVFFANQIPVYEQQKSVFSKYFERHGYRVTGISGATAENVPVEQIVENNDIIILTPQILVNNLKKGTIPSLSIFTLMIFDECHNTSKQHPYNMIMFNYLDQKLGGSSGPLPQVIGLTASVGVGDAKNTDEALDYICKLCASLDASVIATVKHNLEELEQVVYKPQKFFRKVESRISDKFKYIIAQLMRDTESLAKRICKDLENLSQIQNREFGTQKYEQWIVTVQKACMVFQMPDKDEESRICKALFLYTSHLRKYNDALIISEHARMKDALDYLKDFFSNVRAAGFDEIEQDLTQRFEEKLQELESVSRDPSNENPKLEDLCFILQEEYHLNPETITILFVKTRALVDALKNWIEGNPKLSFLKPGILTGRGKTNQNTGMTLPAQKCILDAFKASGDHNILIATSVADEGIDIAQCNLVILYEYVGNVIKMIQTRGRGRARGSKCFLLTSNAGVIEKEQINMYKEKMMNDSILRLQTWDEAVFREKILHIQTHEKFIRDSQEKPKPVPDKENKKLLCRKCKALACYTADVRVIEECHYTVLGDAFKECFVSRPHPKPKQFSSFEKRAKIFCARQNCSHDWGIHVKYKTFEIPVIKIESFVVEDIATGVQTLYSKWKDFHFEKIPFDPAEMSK

RIG-I-FLAG = target: T4, RIG-I-FLAG (UniProt O95786 1-925); test: in vitro binding assay on anti-FLAG beads, immunoblot
T4 construct: also called purified RIG-I-FLAG
T4 sequence: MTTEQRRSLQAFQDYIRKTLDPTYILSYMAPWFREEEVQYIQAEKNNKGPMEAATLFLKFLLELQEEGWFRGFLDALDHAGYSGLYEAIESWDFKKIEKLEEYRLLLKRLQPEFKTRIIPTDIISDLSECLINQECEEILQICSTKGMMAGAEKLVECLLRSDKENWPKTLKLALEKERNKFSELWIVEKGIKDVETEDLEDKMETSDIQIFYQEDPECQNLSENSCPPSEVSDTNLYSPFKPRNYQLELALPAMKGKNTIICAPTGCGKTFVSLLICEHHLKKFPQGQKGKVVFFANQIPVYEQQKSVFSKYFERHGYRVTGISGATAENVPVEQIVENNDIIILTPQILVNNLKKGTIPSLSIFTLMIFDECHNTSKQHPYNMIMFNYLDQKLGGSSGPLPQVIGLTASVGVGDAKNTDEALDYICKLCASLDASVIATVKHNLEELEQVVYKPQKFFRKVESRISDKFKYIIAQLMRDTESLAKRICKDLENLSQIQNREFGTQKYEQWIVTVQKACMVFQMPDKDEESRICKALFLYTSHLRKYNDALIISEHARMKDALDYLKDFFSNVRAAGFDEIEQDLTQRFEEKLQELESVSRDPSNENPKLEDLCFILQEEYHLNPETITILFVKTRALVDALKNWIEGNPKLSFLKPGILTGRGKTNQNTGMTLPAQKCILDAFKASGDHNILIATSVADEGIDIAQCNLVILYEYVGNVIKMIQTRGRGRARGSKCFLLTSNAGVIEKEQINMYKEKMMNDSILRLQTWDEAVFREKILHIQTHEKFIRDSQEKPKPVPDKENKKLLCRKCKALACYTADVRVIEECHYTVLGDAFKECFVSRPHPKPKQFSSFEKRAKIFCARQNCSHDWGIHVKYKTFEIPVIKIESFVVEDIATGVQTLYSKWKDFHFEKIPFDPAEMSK

T1 sequence (Q9WMX2 1027-1657): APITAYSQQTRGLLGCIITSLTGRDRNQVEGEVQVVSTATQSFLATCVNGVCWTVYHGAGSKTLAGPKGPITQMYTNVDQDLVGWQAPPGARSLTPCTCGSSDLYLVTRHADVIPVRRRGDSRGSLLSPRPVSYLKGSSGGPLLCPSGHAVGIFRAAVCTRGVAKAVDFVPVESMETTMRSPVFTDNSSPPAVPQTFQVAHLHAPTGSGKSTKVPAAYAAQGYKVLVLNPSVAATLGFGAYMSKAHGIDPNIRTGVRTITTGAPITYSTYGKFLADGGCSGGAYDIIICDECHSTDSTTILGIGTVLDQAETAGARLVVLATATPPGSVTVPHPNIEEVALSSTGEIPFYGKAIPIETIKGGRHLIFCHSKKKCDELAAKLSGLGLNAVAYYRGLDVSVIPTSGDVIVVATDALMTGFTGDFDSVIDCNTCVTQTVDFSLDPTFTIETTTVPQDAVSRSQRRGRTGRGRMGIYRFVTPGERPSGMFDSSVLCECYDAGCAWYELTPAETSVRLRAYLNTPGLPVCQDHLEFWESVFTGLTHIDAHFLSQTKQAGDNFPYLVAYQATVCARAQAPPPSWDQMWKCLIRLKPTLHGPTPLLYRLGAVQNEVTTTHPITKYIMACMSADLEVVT

NS3 of DV2 NGC in infected Huh7 cells
translocation of RIG-I to the MAVS-containing mitochondrial fraction (fractionation, immunoblot) (endogenous 14-3-3ε): RIG-I failed to translocate to the MAVS-containing mitochondrial fraction during DV infection

B1: endogenous 14-3-3ε (other)
chain: MDDREDLVYQAKLAEQAERYDEMVESMKKVAGMDVELTVEERNLLSVAYKNVIGARRASWRIISSIEQKEENKGGEDKLKMIREYRQMVETELKLICCDILDVLDKHLIPAANTGESKVFYYKMKGDYHRYLAEFATGNDRKEAAENSLVAYKAASDIAMTELPPTHPIRLGLALNFSVFYYEILNSPDRACRLAKAAFDDAIAELDTLSEESYKDSTLIMQLLRDNLTLWTSDMQGDGEEQNKEALQDVEDENQ
binding result [1]: no binding
binding result [2]: no binding
binding result (endogenous RIG-I): binds

B2: bacterially-purified recombinant human 14-3-3ε protein (NP_006752.1) (other)
chain: MDDREDLVYQAKLAEQAERYDEMVESMKKVAGMDVELTVEERNLLSVAYKNVIGARRASWRIISSIEQKEENKGGEDKLKMIREYRQMVETELKLICCDILDVLDKHLIPAANTGESKVFYYKMKGDYHRYLAEFATGNDRKEAAENSLVAYKAASDIAMTELPPTHPIRLGLALNFSVFYYEILNSPDRACRLAKAAFDDAIAELDTLSEESYKDSTLIMQLLRDNLTLWTSDMQGDGEEQNKEALQDVEDENQ
notes: also called recombinant (r) 14-3-3ε; r14-3-3ε
binding result (RIG-I-FLAG): binds
